Assay results as given in US20220363752A1 (VERSEAU THERAPEUTICS, published 2022).
Residue numbers refer to the chain shown, from its start. Primed or numbered codes have the meaning given here. Biotin′ = not defined here

T1: LRRC25(96-115) biotin peptide (human, not fully specified; N-terminal acetyl; C-terminal GGK-Biotin; native Cys changed to Ser)
T1 construct: also called Biotin LRRC25 (96-115) peptide
T1 peptide: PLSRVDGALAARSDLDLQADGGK

T2: LRRC25(21-40) biotin peptide (human, not fully specified; N-terminal NH2; C-terminal GGK-Biotin; native Cys changed to Ser)
T2 peptide: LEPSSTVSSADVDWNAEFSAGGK

T3: LRRC25(81-100) biotin peptide (human, not fully specified; N-terminal acetyl; C-terminal GGK-Biotin)
T3 peptide: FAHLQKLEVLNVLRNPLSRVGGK

T4: LRRC25(36-55) biotin peptide (human, not fully specified; N-terminal NH2; C-terminal GGK-Biotin; native Cys changed to Ser)
T4 peptide: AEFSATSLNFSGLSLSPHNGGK

T5: LRRC25(111-130) biotin peptide (human, not fully specified; N-terminal acetyl; C-terminal GGK-Biotin; native Cys changed to Ser)
T5 peptide: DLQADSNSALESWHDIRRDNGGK

T6: LRRC25(66-85) biotin peptide (human, not fully specified; N-terminal acetyl; C-terminal GGK-Biotin)
T6 peptide: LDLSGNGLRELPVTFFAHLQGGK

T7: LRRC25(141-159) biotin peptide (human, not fully specified; N-terminal acetyl; C-terminal GGK-Biotin; native Cys changed to Ser)
T7 peptide: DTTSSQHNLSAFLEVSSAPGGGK

T8: LRRC25(51-69) biotin peptide (human, not fully specified; N-terminal acetyl; C-terminal GGK-Biotin)
T8 peptide: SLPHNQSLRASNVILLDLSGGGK

T9: LRRC25(126-145) biotin peptide (human, not fully specified; N-terminal acetyl; C-terminal GGK-Biotin; native Cys changed to Ser)
T9 peptide: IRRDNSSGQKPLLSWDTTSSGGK

T10: LRRC25(150-165) biotin peptide (human)
T10 peptide: Ac-SAFLEVSSAPGLASATGG-{Biotin′}

B1: anti-LRRC25 chimeric antibody 1H09 (antibody, human IgG4, V domains shown)
VH: DVQLVESGGGLVKPGGSLKLSCAASGFTFSSYAMSWVRQTPEKRLEWVASISRGGNTYYPDSVKGRFTISRDNARNILYLQMSSLRSEDTAMYYCARGNYGNSPFAYWGQGALVTVSA
VL: DVVMTQTPASLAVSLGQRATISCRASESVDSYGNSFMHWYQQKPGQPPKLLIYLASNLESGVPARFSGSGSRTDFTLTIDPVEADDAATYYCQQNNEDPFTFGSGTKLEIKR
B2: anti-LRRC25 chimeric antibody 1F01 (antibody, human IgG4, V domains shown)
VH: B1 VH with D1E, Q3K, V5E, S31N, M92T, Y94F, A96T, R97K, N102S, A112T
VL: DIQMTQSPASLSASVGETVTITCRASENIYSYLAWYQQKQGKSPQLLVYNAKTLAEGVPSRFSGSGSGTQFSLKINSLQPEDFGSYYCQHHYGTPFTFGSGTKLEIKR
notes: also called ATCC PTA-126025
B3: anti-LRRC25 chimeric antibody 1H04 (antibody, human IgG4, V domains shown)
VH: EVQLVESGGGLVKPGGSLKLSCAASGFTFSNSAMSWVRQTPEKRLEWVASISRGGKTYYPDSVKGRFTISRDNARNILYLQMSSLRSEDTAMYYCARGQELRLFAYWGQGTLVTVSA
VL: DIVMTQDAFSNPVTLGTSASISCRSSKSLLHSNGITYLYWYLQKPGQSPQLLIYQMSNLASGVPDRFSSSGSGTDFTLRISRVEAEDVGVYYCAQNLELPFTFGSGTKLEIKR
B4: anti-LRRC25 chimeric antibody 3F06 (antibody, human IgG4, V domains shown)
VH: DVMLVESGGGLVKPGGSLKLSCAASGFTFSSYAMSWVRQTPDKRLEWVASISSSGNTYYPDTMKGRFTISRDNARNILYLQMSSLRSEDTAMYYCARGLTGTLFAYWGQGTLVTVSA
VL: B3 VL with F9P, N11V, L15P, T17E, A19V, Y37F, Y41F, K112G
B5: anti-LRRC25 chimeric antibody 1A03 (antibody, human IgG4, V domains shown)
VH: B3 VH with N31S, M34V, K56N
VL: B3 VL with D7A, F101P, S105G
B6: anti-LRRC25 chimeric antibody 2G02 (antibody, human IgG4, V domains shown)
VH: QVTLKESGPGILQPSQTLSLTCSFSGFSLSTSGMGVSWIRQPSGKGLEWLAHIYWDDDKRYNPSLKSRLTISKDTSSNQVFLKITSVDTADTATYYCARRHRDYDSRGHWYFGVWGAGTTVTVSS
VL: DVVMTQTPKSMSMSVGERVTLSCKASENVGTYVSWYQQKPEQSPKLLIYGASNRYTGVPDRFTGSGSATDFTLTISSVQAEDLADYHCGQSYNYPFTFGGGTKLEIKR

Target: T11, His-tagged human LRRC25 extracellular domain protein, human LRRC25-His (human, UniProt Q8N386 21-165)
T11 construct: The entry holds the extracellular domain, a GSG linker and the His tag; also called LRRC25(ECD)-HIS
T11 sequence (Q8N386 other isoform, or with tags, fused parts or gaps): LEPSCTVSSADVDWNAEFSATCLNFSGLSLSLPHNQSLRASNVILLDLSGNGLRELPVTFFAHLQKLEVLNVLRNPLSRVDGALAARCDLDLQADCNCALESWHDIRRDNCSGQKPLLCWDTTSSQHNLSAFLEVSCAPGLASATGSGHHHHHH
Assay: ELISA, plate-immobilized antigen
Method: To establish the relative binding strengths of anti-LRRC25 antibodies against human LRRC25, and their cross-reactivity with cynomolgus monkey LRRC25, antibody binding curve analyses were performed and EC50 values against plate-immobilized recombinant human and cyno LRRC25 proteins were determined.
(§1) A typical ELISA was performed by coating overnight in PBS, pH 7.4, at 4° C. in high binding microtiter wells with 1 ug/mL/100 ul per well of human LRRC25-His or cyno LRRC25-His. An anti-human LRRC25 antibody (2A3, LS Bio, LS-C174039-100) and anti-HIS-HRP (Miltenyi Biotec; 130-092-783) served as coating controls for the human and cyno LRRC25 proteins, respectively. […] Anti-LRRC25 antibodies were added (100 ul per well) at 500 nM and serially diluted 3-fold in assay buffer (1% skimmed milk in PBS, pH 7.4). The plate was incubated with gentle agitation for 1 h at room temperature. The plate was washed 3× and HRP-conjugated secondary antibody in assay buffer added [100 ul per well; goat anti-human IgG (Jackson Immunoresearch, cat #715-035-150)], and the plate was incubated as before. Antibody bound to plate-immobilized LRRC25(ECD)-HIS was determined at A450 nm using HRP substrate (3,3′,5,5′-tetramethylbenzidine (TMB); eBioscience; 00-4201-56); 100 μl/well).

EC50 [nM]	Binder
1.5	B1
8.3	B2
0.44	B3
1.9	B4
6.4	B5

Target: T12, biotinylated human LRRC25-His protein (human, UniProt Q8N386 21-165, biotinylated (sites not given))
T12 construct: also called Biotin LRRC25-His; biotinylated LRRC25 protein
T12 sequence (Q8N386 other isoform, or with tags, fused parts or gaps): as above
Assay: ELISA, 20 nM antibody, biotinylated antigen on streptavidin plate
Method: (§2) To establish if functional chimera anti-LRRC25 antibodies recognize particular regions of LRRC25, ELISA experiments were performed using 10 plate-immobilized 16- to 20-mer overlapping LRRC25(ECD) biotin peptides (Table 7). Biotinylated human LRRC25-His served as a positive control. A typical ELISA was performed by coating overnight at 4° C., 3 ug/mL/25 ul per well of streptavidin (Jackson Immunoresearch, Cat. #016-030-084) in PBS in half-area high binding microtiter wells (Corning Cat. #3690). […] Biotin peptides or biotinylated human LRRC25-His protein were added in duplicate (2 ug/mL/25 ul per well) in assay buffer (blocking buffer containing 0.05% tween 20) and the plate incubated for 45 min at 37° C. The plate was washed as before, 20 nM anti-LRRC25 antibodies in assay buffer added in duplicate into appropriate wells, and the plate incubated as before. The plate was washed and HRP-conjugated secondary antibody in assay buffer added [25 ul per well; goat anti-human IgG (Jackson Immunoresearch, Cat. #715-035-150)], and incubated as before. Antibody bound to plate-immobilized peptide(s) or protein was determined at A450 nm using HRP substrate (3,3′,5,5′-tetramethylbenzidine (TMB); eBioscience; Cat. #00-4201-56); 100 μl/well).

absorbance (A450)	Binder
0.564	B1
0.507	B2
2.6	B6
1.24	B3
1.23	B4
0.37	B5

Target: T1, LRRC25(96-115) biotin peptide
Assay: as above
Method: as §2

absorbance (A450)	Binder
0.631	B1
0.782	B2
0.049	B6
2.58	B3
2.8	B4
0.478	B5

Target: T13, His-tagged cynomolgus monkey LRRC25 extracellular domain protein, cyno LRRC25-His (cynomolgus monkey)
T13 construct: The entry holds the extracellular domain, a GSG linker and the His tag
T13 sequence (chain, as listed by the source limits assumed): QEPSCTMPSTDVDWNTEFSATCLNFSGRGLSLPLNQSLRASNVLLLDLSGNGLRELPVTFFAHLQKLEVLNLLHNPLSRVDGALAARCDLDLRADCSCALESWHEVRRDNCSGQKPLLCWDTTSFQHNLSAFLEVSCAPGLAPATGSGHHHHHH
Assay: ELISA, plate-immobilized cyno LRRC25-His
Method: as §1

binding result	Binder
no binding (tested: 500 nM)	B1
no binding (tested: 500 nM)	B2
no binding (tested: 500 nM)	B3
no binding (tested: 500 nM)	B4
no binding (tested: 500 nM)	B5

Target: T2, LRRC25(21-40) biotin peptide
Assay: peptide ELISA
Method: as §2

binding result	Binder
no binding (tested: 20 nM)	B1
no binding (tested: 20 nM)	B2
no binding (tested: 20 nM)	B6
no binding (tested: 20 nM)	B3
no binding (tested: 20 nM)	B4
no binding (tested: 20 nM)	B5

Target: T3, LRRC25(81-100) biotin peptide
Assay: peptide ELISA
Method: as §2

binding result	Binder
no binding (tested: 20 nM)	B1
no binding (tested: 20 nM)	B2
no binding (tested: 20 nM)	B6
no binding (tested: 20 nM)	B3
no binding (tested: 20 nM)	B4
no binding (tested: 20 nM)	B5

Target: T4, LRRC25(36-55) biotin peptide
Assay: peptide ELISA
Method: as §2

binding result	Binder
no binding (tested: 20 nM)	B1
no binding (tested: 20 nM)	B2
no binding (tested: 20 nM)	B6
no binding (tested: 20 nM)	B3
no binding (tested: 20 nM)	B4
no binding (tested: 20 nM)	B5

Target: T5, LRRC25(111-130) biotin peptide
Assay: peptide ELISA
Method: as §2

binding result	Binder
no binding (tested: 20 nM)	B1
no binding (tested: 20 nM)	B2
no binding (tested: 20 nM)	B6
no binding (tested: 20 nM)	B3
no binding (tested: 20 nM)	B4
no binding (tested: 20 nM)	B5

Target: T6, LRRC25(66-85) biotin peptide
Assay: peptide ELISA
Method: as §2

binding result	Binder
no binding (tested: 20 nM)	B1
no binding (tested: 20 nM)	B2
no binding (tested: 20 nM)	B6
no binding (tested: 20 nM)	B3
no binding (tested: 20 nM)	B4
no binding (tested: 20 nM)	B5

Target: T7, LRRC25(141-159) biotin peptide
Assay: peptide ELISA
Method: as §2

binding result	Binder
no binding (tested: 20 nM)	B1
no binding (tested: 20 nM)	B2
no binding (tested: 20 nM)	B6
no binding (tested: 20 nM)	B3
no binding (tested: 20 nM)	B4
no binding (tested: 20 nM)	B5

Target: T8, LRRC25(51-69) biotin peptide
Assay: peptide ELISA
Method: as §2

binding result	Binder
no binding (tested: 20 nM)	B1
no binding (tested: 20 nM)	B2
no binding (tested: 20 nM)	B6
no binding (tested: 20 nM)	B3
no binding (tested: 20 nM)	B4
no binding (tested: 20 nM)	B5

Target: T1, LRRC25(96-115) biotin peptide
Assay: peptide ELISA
Method: as §2

binding result	Binder
no binding (tested: 20 nM)	B6

Target: T9, LRRC25(126-145) biotin peptide
Assay: peptide ELISA
Method: as §2

binding result	Binder
no binding (tested: 20 nM)	B1
no binding (tested: 20 nM)	B2
no binding (tested: 20 nM)	B6
no binding (tested: 20 nM)	B3
no binding (tested: 20 nM)	B4
no binding (tested: 20 nM)	B5

Target: T10, LRRC25(150-165) biotin peptide
Assay: peptide ELISA
Method: as §2

binding result	Binder
no binding (tested: 20 nM)	B1
no binding (tested: 20 nM)	B2
no binding (tested: 20 nM)	B6
no binding (tested: 20 nM)	B3
no binding (tested: 20 nM)	B4
no binding (tested: 20 nM)	B5
